Data published in US20170008928A1, “NOVEL PEPTIDES AND PEPTIDE DERIVATIVES AND USES THEREOF” (Novo Nordisk A/S, priority 2015, published 2017).
Where two headings read alike, the source gives them in different places. Starred links: 1 amine or outer side, 2 acyl side, 3 side chain; linkers in the order of their positions; H or OH if unused. Non-standard residues stand in square brackets, D forms with d. Residues, ends and D or L forms follow the SMILES beside them. No end group written: not given here. *: point of attachment. Phe(4-CH2SO3H) = N[C@@H](Cc1ccc(CS(=O)(=O)O)cc1)C(=O)O; sY = N[C@@H](Cc1ccc(OS(=O)(=O)O)cc1)C(=O)O; C18 diacid = O=C(O)CCCCCCCCCCCCCCCCC(=O)*; d(βAsp) = O=C(O)[C@@H](CC(=O)[*:2])N[*:1]; C16 diacid = O=C(O)CCCCCCCCCCCCCCC(=O)*; γGlu = O=C(O)[C@H](CCC(=O)[*:2])N[*:1]; 1Nal = N[C@@H](Cc1cccc2ccccc12)C(=O)O; C14 diacid = O=C(O)CCCCCCCCCCCCC(=O)*; Met(O2) = CS(=O)(=O)CC[C@H](N)C(=O)O; NMeF = CN[C@@H](Cc1ccccc1)C(=O)O; dNMeD = CN[C@H](CC(=O)O)C(=O)O; Nle = CCCC[C@H](N)C(=O)O; AEEA = NCCOCCOCC(=O)O

Tests used:
[1] = molecular target: T1, human cholecystokinin-1 receptor (human, UniProt P32238 1-428); test: cell-based or functional assay
T1 sequence (looked up): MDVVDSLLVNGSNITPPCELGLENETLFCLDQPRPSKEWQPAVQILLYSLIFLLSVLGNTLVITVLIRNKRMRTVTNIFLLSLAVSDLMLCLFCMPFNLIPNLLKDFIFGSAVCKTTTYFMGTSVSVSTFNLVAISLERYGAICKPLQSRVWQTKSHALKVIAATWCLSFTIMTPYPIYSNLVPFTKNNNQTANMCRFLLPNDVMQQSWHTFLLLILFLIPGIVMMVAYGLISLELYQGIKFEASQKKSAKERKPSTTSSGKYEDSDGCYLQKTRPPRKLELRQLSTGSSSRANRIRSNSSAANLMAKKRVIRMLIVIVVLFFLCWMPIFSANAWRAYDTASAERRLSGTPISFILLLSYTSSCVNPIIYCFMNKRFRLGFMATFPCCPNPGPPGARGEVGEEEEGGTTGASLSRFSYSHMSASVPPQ

[2] = molecular target: T2, human cholecystokinin-2 receptor (human, UniProt P32239 1-447); test: cell-based or functional assay
T2 sequence (looked up): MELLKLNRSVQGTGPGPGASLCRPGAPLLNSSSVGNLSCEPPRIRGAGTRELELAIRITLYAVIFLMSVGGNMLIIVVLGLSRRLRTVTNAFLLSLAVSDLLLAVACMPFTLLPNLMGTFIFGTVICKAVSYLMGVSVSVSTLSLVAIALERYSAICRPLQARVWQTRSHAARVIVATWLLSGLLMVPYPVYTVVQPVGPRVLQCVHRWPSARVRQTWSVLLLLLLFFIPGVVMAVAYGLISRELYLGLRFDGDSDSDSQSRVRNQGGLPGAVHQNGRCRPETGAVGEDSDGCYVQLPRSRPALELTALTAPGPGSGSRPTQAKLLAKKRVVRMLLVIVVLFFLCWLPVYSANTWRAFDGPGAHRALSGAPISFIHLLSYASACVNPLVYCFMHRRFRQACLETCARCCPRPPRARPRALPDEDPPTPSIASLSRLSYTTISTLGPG

[3] = molecular target: T3, human cholecystokinin-1 receptor (CCK-1R) (Homo sapiens, UniProt P32238); test: In vitro potency on CCK-1R, whole cell functional assay (IP1 accumulation, IP-One HTRF); type: cell-based; conditions: for CCK-1R selectivity (EC50 (CCK-2R)/EC50 (CCK-1R)): ratio of functional EC50 values, >1 = preference for CCK-1R
T3 construct: host or cells: 1321-N1 cells
T3 sequence (P32238 1-428): T1 sequence (looked up)

[4] = molecular target: T4, human cholecystokinin-2 receptor (CCK-2R) (Homo sapiens, UniProt P32239); test: In vitro potency on CCK-2R, whole cell functional assay (IP1 accumulation, IP-One HTRF); type: cell-based
T4 construct: host or cells: 1321-N1 cells (plasma membranes prepared by Evotec AG Hamburg)
T4 sequence (P32239 1-447): T2 sequence (looked up)

[5] = molecular target: T3, human cholecystokinin-1 receptor (CCK-1R); test: In vitro receptor binding to CCK-1R, SPA displacement of [125I]-CCK-8s from plasma membranes; conditions: for CCK-1R binding selectivity (IC50 (CCK-2R)/IC50 (CCK-1R)): ratio of binding IC50 values, >1 = preference for CCK-1R
[6] = molecular target: T4, human cholecystokinin-2 receptor (CCK-2R); test: In vitro receptor binding to CCK-2R, SPA displacement of [125I]-CCK-8s from plasma membranes
[7] = molecular target: T2, human cholecystokinin-2 receptor; test: SPA competition vs [125I]-CCK-8s, membranes
Experimental: CCK receptor binding assays were performed in 96-well Optiplates (Cat #6005290, PerkinElmer, Waltham, Mass., USA) in a total volume of 200 μl per well.
The plates were sealed and incubated in the dark at +22° C. for 2 hours on a IKA MTS plate shaker (IKA-Werke D-79219 Staufen) set at 300 rpm and thereafter centrifuged at 1500 rpm for 10 minutes in a Heraeus Multifuge 3s centrifuge. SPA bead light emission was measured in a TopCount NXT (PerkinElmer) for 2 min/well after a delay of 60 min.

[8] = 1321-N1 cells stably expressing CCK-1R, IP1 accumulation, average of min. three replicates, read-out: EC50 (CCK-1R)
[9] = 1321-N1 cells stably expressing CCK-2R, IP1 accumulation, highest dose tested 1×10^6 pM, read-out: EC50 (CCK-2R)
[10] = displacement of [125I]-CCK-8s, plasma membranes of 1321-N1 cells expressing CCK-2R, highest dose tested 1×10^7 pM, read-out: IC50 (CCK-2R)
[11] = displacement of [125I]-CCK-8s, plasma membranes of 1321-N1 cells expressing CCK-1R, read-out: IC50 (CCK-1R)

Molecule: 2-[2-[2-[[2-[2-[2-[[(4S)-4-Carboxy-4-(17-carboxyheptadecanoylamino)butanoyl]amino]ethoxy]ethoxy]acetyl]amino]ethoxy]ethoxy]acetyl-Asp-sTyr-Nle-Gly-Trp-Nle-DMeAsp-1Nal-amide (peptide)
- EC50 (CCK-1R) [1]: 0.37 nM
- EC50 (CCK-2R) [2]: 180 nM

Molecule: CC(C)C[C@H](NC(=O)[C@H](Cc1ccc(OS(=O)(=O)O)cc1)NC(=O)[C@H](CCC(=O)O)NC(=O)COCCOCCNC(=O)COCCOCCNC(=O)CC[C@H](NC(=O)CCCCCCCCCCCCCCCCC(=O)O)C(=O)O)C(=O)NCC(=O)N[C@@H](Cc1c[nH]c2ccccc12)C(=O)N[C@@H](CCC(N)=O)C(=O)N(C)[C@H](CC(=O)O)C(=O)N(C)[C@@H](Cc1ccccc1)C(N)=O [Example 42, 2-[2-[2-[[2-[2-[2-[[(4S)-4-Carboxy-4-(17-carboxyheptadecanoylamino)butanoyl]amino]ethoxy]ethoxy]acetyl]amino]ethoxy]ethoxy]acetyl-Glu-sTyr-Leu-Gly-Trp-Gln-DMeAsp-MePhe-amide]
- EC50 [3, 8]: 0.22 nM
- CCK-1R selectivity (EC50 (CCK-2R)/EC50 (CCK-1R)) [3]: very selective
- EC50 [4, 9]: > 1000 nM
- CCK-1R binding selectivity (IC50 (CCK-2R)/IC50 (CCK-1R)) [5]: very selective
- IC50 [6, 10]: > 10000 nM

Molecule: CCCC[C@H](NC(=O)[C@H](Cc1ccc(OS(=O)(=O)O)cc1)NC(=O)[C@@H](N)CC(=O)O)C(=O)NCC(=O)N[C@@H](Cc1c[nH]c2ccccc12)C(=O)N[C@@H](CCCC)C(=O)N(C)[C@H](CC(=O)O)C(=O)N[C@@H](Cc1cccc2ccccc12)C(N)=O [Example 54, Asp-sTyr-Nle-Gly-Trp-Nle-DMeAsp-1Nal-amide] (H-D[sY][Nle]GW[Nle][dNMeD][1Nal]-NH2)
- EC50 [3, 8]: 0.14 nM
- CCK-1R selectivity (EC50 (CCK-2R)/EC50 (CCK-1R)) [3]: 2100
- EC50 [4, 9]: 290 nM
- IC50 [5, 11]: 0.027 nM
- CCK-1R binding selectivity (IC50 (CCK-2R)/IC50 (CCK-1R)) [5]: 84000
- IC50 [6, 10]: 2300 nM

Molecule: CCCC[C@H](NC(=O)[C@H](Cc1c[nH]c2ccccc12)NC(=O)CNC(=O)[C@H](Cc1ccccc1)NC(=O)[C@H](Cc1ccc(OS(=O)(=O)O)cc1)NC(=O)[C@@H](N)CC(=O)O)C(=O)N(C)[C@H](CC(=O)O)C(=O)N(C)[C@@H](Cc1ccccc1)C(N)=O [Example 78, Asp-sTyr-Phe-Gly-Trp-Nle-DMeAsp-MePhe-amide] (H-D[sY]FGW[Nle][dNMeD][NMeF]-NH2)
- EC50 [3, 8]: 0.22 nM
- EC50 [4, 9]: > 1000 nM
- IC50 [5, 11]: 0.029 nM
- CCK-1R binding selectivity (IC50 (CCK-2R)/IC50 (CCK-1R)) [5]: 32000
- IC50 [6, 10]: 920 nM

Molecule: CC(C)C[C@H](NC(=O)[C@H](Cc1ccc(OS(=O)(=O)O)cc1)NC(=O)[C@@H](N)CC(=O)O)C(=O)NCC(=O)N[C@@H](Cc1c[nH]c2ccccc12)C(=O)N[C@@H](C)C(=O)N(C)[C@H](CC(=O)O)C(=O)N(C)[C@@H](Cc1ccccc1)C(N)=O [Example 84, Asp-sTyr-Leu-Gly-Trp-Ala-DMeAsp-MePhe-amide] (H-D[sY]LGWA[dNMeD][NMeF]-NH2)
- EC50 [3]: 0.22 nM
- EC50 [4]: > 1000 nM
- IC50 [5]: 0.53 nM
- IC50 [6]: > 10000 nM

B1: 2-[2-[2-[[2-[2-[2-[[(4S)-4-Carboxy-4-(13-carboxytridecanoylamino)butanoyl]amino]ethoxy]ethoxy]acetyl]amino]ethoxy]ethoxy]acetyl-Glu-sTyr-Leu-Gly-Trp-Nle-DMeAsp- … (peptide)
peptide: {C14 diacid-γGlu-AEEA-AEEA}-E[sY]LGW[Nle][dNMeD][NMeF]-NH2
SMILES: CCCC[C@H](NC(=O)[C@H](Cc1c[nH]c2ccccc12)NC(=O)CNC(=O)[C@H](CC(C)C)NC(=O)[C@H](Cc1ccc(OS(=O)(=O)O)cc1)NC(=O)[C@H](CCC(=O)O)NC(=O)COCCOCCNC(=O)COCCOCCNC(=O)CC[C@H](NC(=O)CCCCCCCCCCCCC(=O)O)C(=O)O)C(=O)N(C)[C@H](CC(=O)O)C(=O)N(C)[C@@H](Cc1ccccc1)C(N)=O
notes: X = Nle or Nal
- EC50 (CCK-2R) [2]: 150 nM
- IC50 [7]: 1200 nM

Molecule: {C16 diacid-γGlu-AEEA-AEEA}-E[sY]LGW[Nle][dNMeD][NMeF]-NH2 (X = Nle or Nal)
- EC50 (CCK-2R) [2]: 110 nM
- IC50 [7]: 590 nM

Molecule: {C18 diacid-γGlu-AEEA-AEEA}-D[sY]PGW[Nle][dNMeD][NMeF]-NH2 (X = Nle or Nal)
- EC50 (CCK-2R) [2]: 300 nM
- IC50 [7]: 5200 nM

Molecule: {C18 diacid-γGlu-AEEA-AEEA}-[dE][sY]LGW[Nle][dNMeD][NMeF]-NH2 (X = Nle or Nal)
- EC50 (CCK-2R) [2]: 46 nM
- IC50 [7]: 700 nM

Molecule: {C18 diacid-γGlu-AEEA-AEEA}-D[sY]IGW[Nle][dNMeD][NMeF]-NH2 (X = Nle or Nal)
- EC50 (CCK-2R) [2]: 210 nM
- IC50 [7]: 340 nM

Molecule: {C18 diacid-γGlu-AEEA-AEEA}-E[sY]LGW[Nle][dNMeD][NMeF]-NH2 (X = Nle or Nal)
- EC50 (CCK-2R) [2]: 62 nM
- IC50 [7]: 2400 nM

Molecule: {C18 diacid-γGlu-AEEA-AEEA}-D[sY]HGW[Nle][dNMeD][NMeF]-NH2 (X = Nle or Nal)
- EC50 (CCK-2R) [2]: > 1000 nM
- IC50 [7]: 9000 nM

B2: Asp-sTyr-Phe-Gly-Trp-Nle-DMeAsp-MePhe-amide (peptide)
peptide: D[sY]FGW[Nle][dNMeD][NMeF]-NH2
modifications: N-terminus assumed
SMILES: CCCC[C@H](NC(=O)[C@H](Cc1c[nH]c2ccccc12)NC(=O)CNC(=O)[C@H](Cc1ccccc1)NC(=O)[C@H](Cc1ccc(OS(=O)(=O)O)cc1)NC(=O)[C@@H](N)CC(=O)O)C(=O)N(C)[C@H](CC(=O)O)C(=O)N(C)[C@@H](Cc1ccccc1)C(N)=O
notes: X = Nle or Nal
- EC50 (CCK-1R) [1]: 0.22 nM
- EC50 (CCK-2R) [2]: > 1000 nM

Molecule: {C18 diacid-γGlu-AEEA-AEEA}-D[Phe(4-CH2SO3H)]LGW[Nle][dNMeD][NMeF]-NH2 (X = Nle or Nal)
- EC50 (CCK-2R) [2]: 81 nM
- IC50 [7]: 380 nM

Molecule: D[sY]LGW[Met(O2)][dNMeD][NMeF]-NH2 [Asp-sTyr-Leu-Gly-Trp-Met(O2)-DMeAsp-MePhe-amide]
- EC50 (CCK-1R) [1]: 0.37 nM
- EC50 (CCK-2R) [2]: > 1000 nM

B3: 2-[2-[2-[[2-[2-[2-[[(4S)-4-Carboxy-4-(17-carboxyheptadecanoylamino)butanoyl]amino]ethoxy]ethoxy]acetyl]amino]ethoxy]ethoxy]acetyl-DbAsp-Phe(4-sulfomethyl)-Nle-G … (peptide)
peptide: {C18 diacid-γGlu-AEEA-AEEA}-[d(βAsp)][Phe(4-CH2SO3H)][Nle]GW[Nle][dNMeD][NMeF]-NH2
SMILES: CCCC[C@H](NC(=O)[C@H](Cc1ccc(CS(=O)(=O)O)cc1)NC(=O)C[C@@H](NC(=O)COCCOCCNC(=O)COCCOCCNC(=O)CC[C@H](NC(=O)CCCCCCCCCCCCCCCCC(=O)O)C(=O)O)C(=O)O)C(=O)NCC(=O)N[C@@H](Cc1c[nH]c2ccccc12)C(=O)N[C@@H](CCCC)C(=O)N(C)[C@H](CC(=O)O)C(=O)N(C)[C@@H](Cc1ccccc1)C(N)=O
- EC50 (CCK-1R) [1]: 0.43 nM
